This is an account of results in the supplement of paper PMC7877785.

This data set can be described thus: self-splicing fitness, log relative to wild type (ln ratio); higher = more splicing; Tetrahymena group I intron in knt gene, E. coli kanamycin selection, DiMSum; sequences stand for … in CUCUCU…GGAGGGAAAAGUUAUCAGGCAUGCACCUGGUAGCUAGUCUUUAAACCAAUAGAUUGCAUCGGUUUAAAAGGCAAGACCGUCAAAUUGCGGGAAAGGGGUCAACAGCCGUUCAGUACCAAGUCUCAGGGGAAACUUUGAGAUGGCCUUGCAAAGGGUAUGGUAAUAAGCUGACGGACAUGGUCCUAACCACGCAGCCAAGUCCUAAGUCAACAGAUCUUCUGUUGAUAUGGAUGCAGUUCACAGACUAAAUGUCGGUCGGGGAAGAUGUAUUCUUCUCAUAAGAUAUAGUCGGACCUCUCCUUAAUGGGAGCUAGCGGAUGAAGUGAUGCAACACUGGAGCCGCUGGGAACUAAUUUGUAUGCGAAAGUAUAUUGAUUAGUUUUGGAGUACUCGUGGUCG
The method, boiled down: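 Library with all eight P1ex-region intron nucleotides randomised, intron inside the knt kanamycin-resistance gene on pET-22b(+), in E. coli BL21(DE3). Cells grew overnight at 37°C or 30°C on LB agar with or without 25 μg/mL kanamycin (plus 100 μg/mL carbenicillin, 50 μM IPTG, 0.2% rhamnose), in six replicate transformations. Pooled colonies were amplicon-sequenced on Illumina HiSeq 2500. DiMSum fitness is the error-weighted combination of wild-type-normalised replicate fold changes, kanamycin versus none.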

± gives the uncertainty stated by the source.

Regarding UGGCAGCAAUAUUACGGCGA, the “self-splicing fitness (ln)” value (30 °C) was 0.0623 ± 0.12 and the “self-splicing fitness (ln)” value (37 °C) turned out to be 0.97 ± 0.13.
On the same counts, the results for CAGCAGCAAUAUUACGGGUU are -4.98 ± 0.26 and -1.6 ± 0.13.
Turning to AUAGAGCAAUAUUACGAACG, the “self-splicing fitness (ln)” value is, setting by setting: (30 °C) -2.4 ± 0.21; (37 °C) -0.83 ± 0.19.
On to UCCGAGCAAUAUUACGUUAA, for which the “self-splicing fitness (ln)” value is -2.36 ± 0.21 (30 °C) and -2.57 ± 0.28 (37 °C).
For the sequence GUUCAGCAAUAUUACGUUUC, the “self-splicing fitness (ln)” value is -0.965 ± 0.07 (30 °C) and -0.339 ± 0.084 (37 °C).
As for AAAAAGCAAUAUUACGUCAU, the “self-splicing fitness (ln)” value (30 °C) is -2.2 ± 0.08 and the “self-splicing fitness (ln)” value (37 °C) was -1.14 ± 0.092.
As to AUCUAGCAAUAUUACGUGUU, the “self-splicing fitness (ln)” value reads like this: (30 °C) -2.71 ± 0.17; (37 °C) -2.54 ± 0.17.
For UUAUAGCAAUAUUACGAAUC, in that order: -2.06 ± 0.4 and -1.85 ± 0.48.
For UCCCAGCAAUAUUACGAGUC, in that order: -3.66 ± 0.18 and -1.56 ± 0.17.
On the same counts, the results for UUUUAGCAAUAUUACGUGGG are -1.79 ± 0.2 and -2.27 ± 0.27.
Consider CGACAGCAAUAUUACGGCAG, for which the “self-splicing fitness (ln)” value is -0.376 ± 0.083 (30 °C) and 0.289 ± 0.094 (37 °C).
For GGUGAGCAAUAUUACGUCGG, the “self-splicing fitness (ln)” value is, setting by setting: (30 °C) -2.16 ± 0.28; (37 °C) -2.5 ± 0.3.
As to GAGCAGCAAUAUUACGAGUA, the “self-splicing fitness (ln)” value (30 °C) was -2.42 ± 0.34 and the “self-splicing fitness (ln)” value (37 °C) was -1.92 ± 0.26.
For GGAAAGCAAUAUUACGGAGC, in that order: -1.43 ± 0.17 and -1.49 ± 0.2.
As for AAUCAGCAAUAUUACGCCCG, the “self-splicing fitness (ln)” value runs as follows: (30 °C) -0.416 ± 0.14; (37 °C) -0.489 ± 0.16.
For GAAAAGCAAUAUUACGAGUC, in that order: -2.16 ± 0.15 and -0.233 ± 0.1.
For AAGCAGCAAUAUUACGUGUC, in that order: -2.94 ± 0.15 and -2.01 ± 0.15.
Consider GUCCAGCAAUAUUACGUCCA, for which the “self-splicing fitness (ln)” value runs as follows: (30 °C) -1.12 ± 0.077; (37 °C) -0.579 ± 0.079.
For AGCGAGCAAUAUUACGCCCU, in that order: -1.34 ± 0.35 and -0.0906 ± 0.22.
On to GGCUAGCAAUAUUACGGGCU, for which, under “37 °C”, the “self-splicing fitness (ln)” value was -3.05 ± 0.3.
As for CGGUAGCAAUAUUACGGAAG, the “self-splicing fitness (ln)” value (30 °C) was -0.936 ± 0.13 and the “self-splicing fitness (ln)” value (37 °C) is -0.67 ± 0.14.
As to GGACAGCAAUAUUACGGCAU, the “self-splicing fitness (ln)” value is -0.228 ± 0.053 (30 °C) and 0.0818 ± 0.068 (37 °C).
On to CGGAAGCAAUAUUACGCUGA, for which the “self-splicing fitness (ln)” value (37 °C) is -1.21 ± 0.26.
As for UUAGAGCAAUAUUACGGUUA, the “self-splicing fitness (ln)” value (30 °C) is -0.618 ± 0.15 and the “self-splicing fitness (ln)” value (37 °C) was -1.17 ± 0.23.
As for AUCGAGCAAUAUUACGAUCC, the “self-splicing fitness (ln)” value (30 °C) was -2.13 ± 0.46.
Turning to UCGCAGCAAUAUUACGAUCU, the “self-splicing fitness (ln)” value is, setting by setting: (30 °C) -1.17 ± 0.21; (37 °C) -2.57 ± 0.21.
Regarding CCGUAGCAAUAUUACGGGAA, under “37 °C”, the “self-splicing fitness (ln)” value was -2.04 ± 0.31.
As for AUAGAGCAAUAUUACGUAAG, the “self-splicing fitness (ln)” value was -1.94 ± 0.22 (30 °C) and -1.34 ± 0.25 (37 °C).
With GCUGAGCAAUAUUACGAGUC, where the note is “37 °C”, the “self-splicing fitness (ln)” value is -2.04 ± 0.25.
AGGAAGCAAUAUUACGCGUC: the “self-splicing fitness (ln)” value by setting is: (30 °C) -3.99 ± 0.33; (37 °C) -2.24 ± 0.24.
On the same counts, the results for AGUAAGCAAUAUUACGACGU are -0.0587 ± 0.09 and -0.132 ± 0.087.
For the sequence GCAAAGCAAUAUUACGGAGU, the “self-splicing fitness (ln)” value (30 °C) was -3.58 ± 0.17 and the “self-splicing fitness (ln)” value (37 °C) was -2.42 ± 0.21.
On the same counts, the results for UAGCAGCAAUAUUACGGGGG are -3.44 ± 0.29 and -2.98 ± 0.29.
For GCAAAGCAAUAUUACGCAGU, in that order: -3.23 ± 0.28 and -2.42 ± 0.23.
With UUCAAGCAAUAUUACGGGUG, the “self-splicing fitness (ln)” value runs as follows: (30 °C) -0.476 ± 0.045; (37 °C) -0.593 ± 0.06.
